# Experiments:
# [1] = biological target: human CD47 (hCD47) expressed on cells (human) (UniProt Q08722); experiment: flow cytometry, Raji cells
# [2] = biological target: hu-sCD47-6His; extracellular domain of human CD47 antigen with 6His-tag (human); experiment: ELISA, one-site binding saturation fit, glycosylated hCD47
# [3] = biological target: N-deglycosylated soluble hCD47-His (PNGase treated) (human); experiment: ELISA, coated N-deglycosylated hCD47-His
# [4] = biological target: hu-sCD47-6His; extracellular domain of human CD47 antigen with 6His-tag (human); experiment: ELISA, coated glycosylated hCD47-His
# [5] = biological target: hu-sCD47-6His; extracellular domain of human CD47 antigen with 6His-tag (human); experiment: SPR Biacore
# [6] = biological target: N-deglycosylated soluble hCD47-His (PNGase treated) (human); experiment: ELISA, one-site binding saturation fit, deglycosylated hCD47
# [7] = biological target: human CD47 (hCD47) expressed on cells (human) (UniProt Q08722); experiment: flow cytometry, Raji cells, competition with His-hSIRPα
# Chain of humanized 5F9 (hu5F9; vh2-vl2) (antibody) (VH): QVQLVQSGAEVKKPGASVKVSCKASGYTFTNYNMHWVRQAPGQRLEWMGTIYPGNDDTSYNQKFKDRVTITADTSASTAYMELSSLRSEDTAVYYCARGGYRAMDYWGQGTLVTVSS
# Chain of humanized 5F9 (hu5F9; vh2-vl2) (antibody) (VL): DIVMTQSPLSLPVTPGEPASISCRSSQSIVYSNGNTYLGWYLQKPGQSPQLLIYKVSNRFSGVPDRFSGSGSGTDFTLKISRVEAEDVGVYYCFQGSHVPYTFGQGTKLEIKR
# Chain of B6H12 (mouse IgG1, Abcam) (antibody) (VH): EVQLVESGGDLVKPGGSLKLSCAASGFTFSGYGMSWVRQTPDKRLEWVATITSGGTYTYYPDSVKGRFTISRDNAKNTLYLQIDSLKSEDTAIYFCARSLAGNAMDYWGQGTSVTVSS
# Chain of B6H12 (mouse IgG1, Abcam) (antibody) (VL): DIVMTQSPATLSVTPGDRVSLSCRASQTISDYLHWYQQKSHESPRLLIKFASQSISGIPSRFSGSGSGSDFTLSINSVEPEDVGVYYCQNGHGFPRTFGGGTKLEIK
substance,measurement,setting,value
"B6H12 (mouse IgG1, Abcam) (antibody)",EC50,[1],2.93 µg/mL
humanized 5F9 (hu5F9; vh2-vl2) (antibody),Bmax,[2],2.66 OD value
same,equilibrium binding constant,[2],49 pM
same,EC50,[3],0.254 nM
same,EC95,[3],54 nM
same,EC50,[4],0.0547 nM
same,EC95,[4],1.96 nM
same,Kd,[5],0.73 nM
same,Bmax2,[6],1.4 OD value
same,equilibrium binding constant,[6],129 pM
chimeric 5F9 (c5F9) (antibody),IC50,[7],0.209 µg/mL

# Reference: patent US20220356245A1
